One molecule from publication PMC12888920, “MMP-9 regulates disulphide isomerase activity of TGM2 to enhance fusion glycoprotein-mediated syncytium formation of respiratory syncytial virus” (Protein & Cell, 2025) can be followed below.

Experiment [1] concerns the target RSV F protein (DS-Cav1). Put plainly: Biolayer interferometry, MMP-9 binding to RSV F protein (DS-Cav1). Details: species or system Respiratory syncytial virus. As to conditions: BLI, DS-Cav1 immobilized; read-out: dissociation constant (KD), MMP-9 to RSV F. On the procedure: Figure 4. MMP-9 interacts with RSV F protein. (A) MMP-9–F protein interaction analysis. HEK293T cells co-transfected with MMP-9 and RSV F plasmids (48 h) were subjected to co-immunoprecipitation (Co-IP) using anti-F, anti-MMP-9, or IgG control antibodies, followed by immunoblotting with indicated probes. Blots represent three independent experiments. (B) Binding affinity quantification. Biolayer interferometry (BLI) assays using ForteBio Octet measured DS-Cav1 (RSV F prefusion conformation) and MMP-9 interactions. The results represent three biological replicates. (C) Subcellular co-localization. Confocal microscopy of HEp-2 cells transfected with MMP-9 (24 h) ± RSV A2 infection (MOI = 1, 72 hpi). Nuclei (DAPI), MMP-9, and RSV F signals are shown. Scale bar: 20 µm. Images represent three biological replicates. (D) No effect on F protein proteolytic processing. Western blot of RSV F cleavage status in HEK293T cells co-expressing MMP-9 (100–500 ng) and RSV F (500 ng) for 48 h. β-Actin served as loading control. Blots represent three independent experiments. […] They were left out and are not reliably readable. […]
(§1) 271 TGM2) were quantified using a Sartorius Octet R4 system. […]
(§2) 275 equilibration. MMP-9 (MCE) binding was assessed across two concentration ranges: […]
(§3) 281 (Sartorius) at 20 µg/mL. TGM2 binding was evaluated across 0 –100 µM (7 […]

Experiment [2] addresses T1, TGM2 (Homo sapiens, UniProt P21980).
T1 construct: His tag (inferred from capture on anti-penta-HIS biosensors); purchased MCE (MedChemExpress)
T1 sequence (P21980 1-687): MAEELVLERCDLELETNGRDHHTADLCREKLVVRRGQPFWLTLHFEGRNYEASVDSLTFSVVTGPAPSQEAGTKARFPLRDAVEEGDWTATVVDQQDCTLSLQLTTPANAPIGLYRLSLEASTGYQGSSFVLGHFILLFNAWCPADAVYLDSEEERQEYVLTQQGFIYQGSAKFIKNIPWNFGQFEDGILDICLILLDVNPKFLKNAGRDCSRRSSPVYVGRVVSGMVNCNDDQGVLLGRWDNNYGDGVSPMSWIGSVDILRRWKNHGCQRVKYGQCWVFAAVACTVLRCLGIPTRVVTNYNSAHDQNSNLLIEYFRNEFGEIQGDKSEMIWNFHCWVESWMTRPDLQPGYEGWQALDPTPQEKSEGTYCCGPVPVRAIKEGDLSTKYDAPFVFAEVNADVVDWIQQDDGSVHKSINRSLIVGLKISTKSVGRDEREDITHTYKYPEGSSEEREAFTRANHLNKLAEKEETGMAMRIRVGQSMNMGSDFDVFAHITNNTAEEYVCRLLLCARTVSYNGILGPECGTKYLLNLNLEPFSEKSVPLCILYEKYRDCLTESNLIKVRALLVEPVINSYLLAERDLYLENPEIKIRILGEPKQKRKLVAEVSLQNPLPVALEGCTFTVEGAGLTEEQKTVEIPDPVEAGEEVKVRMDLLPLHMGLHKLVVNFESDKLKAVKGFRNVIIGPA
The experiment is described as follows: Biolayer interferometry, MMP-9 binding to TGM2. As to conditions: BLI, purified human proteins, TGM2 immobilized; read-out: dissociation constant (KD), MMP-9 to TGM2. The method, then:
Figure 6. MMP-9 cleaves TGM2 to potentiate RSV infection. (A) MMP-9–TGM2 interaction. […] Blots represent three independent experiments. (D) Infection-enhanced cleavage. MMP-9-dependent TGM2 proteolysis in HEp-2 cells transfected with HA-TGM2 and siMMP-9, followed by RSV A2 infection (MOI = 1, 72 hpi). TGM2 fragment band intensity was quantified by ImageJ software (gray values). Blots represent three independent experiments. (E) Enzymatic validation. MMP-9 proteolytic activity was measured using fluorogenic substrate Mca-PLGL-Dpa-AR-NH2. The results represent three biological replicates. (F) In vitro cleavage assay. Recombinant TGM2 (2 µg) was incubated with APMA-activated MMP-9 (0.2 µg) for 18 h (37°C, pH 7.5). Cleavage products resolved by SDS-PAGE (10%). Arrows indicate proteolytic fragments. The results represent three biological replicates. (G) Functional rescue. Viral titers (FFA) in HEp-2 cells overexpressing MMP-9, TGM2, or cleavage-resistant mutant (TGM2-P375A) post RSV infection (MOI = 1, 72 hpi). mean ± SD, n = 3. (H) Syncytium rescue. Syncytia area quantification in MMP-9/TGM2-modulated cells (ImageJ software). mean ± SD, n = 3. […]
as §1, §2, §3
On the technique in general: In BLI a coated tip is dipped into the sample, and binding shifts an interference pattern.

B1: MMP-9: recombinant matrix metalloproteinase 9 protein used as analyte in BLI (protein)
chain: APRQRQSTLVLFPGDLRTNLTDRQLAEEYLYRYGYTRVAEMRGESKSLGPALLLLQKQLSLPETGELDSATLKAMRTPRCGVPDLGRFQTFEGDLKWHHHNITYWIQNYSEDLPRAVIDDAFARAFALWSAVTPLTFTRVYSRDADIVIQFGVAEHGDGYPFDGKDGLLAHAFPPGPGIQGDAHFDDDELWSLGKGVVVPTRFGNADGAACHFPFIFEGRSYSACTTDGRSDGLPWCSTTANYDTDDRFGFCPSERLYTQDGNADGKPCQFPFIFQGQSYSACTTDGRSDGYRWCATTANYDRDKLFGFCPTRADSTVMGGNSAGELCVFPFTFLGKEYSTCTSEGRGDGRLWCATTSNFDSDKKWGFCPDQGYSLFLVAAHEFGHALGLDHSSVPEALMYPMYRFTEGPPLHKDDVNGIRHLYGPRPEPEPRPPTTTTPQPTAPPTVCPTGPPTVHPSERPTAGPTGPPSAGPTGPPTAGPSTATTVPLSPVDDACNVNIFDAIAEIGNQLYLFKDGKYWRFSEGRGSRPQGPFLIADKWPALPRKLDSVFEERLSKKLFFFSGRQVWVYTGASVLGPRRLDKLGLGADVAQVTGALRSGRGKMLLFSGRRLWRFDVKAQMVDPRSASEVDRMFPGVPLDTHDVFQYREKAYFCQDRFYWRVSSRSELNQVDQVGYVTYDILQCPED
Broadly, the Kd is the concentration at which binding is half-saturated. For the molecule B1, the Kd turned out to be 146 nM in experiment [1] and 1980 nM in experiment [2].
